“And” between values parts separate entries of the source, which are not always exact repeats. Identical values can stand only once.
Experiments:
transgenic maize plants = test: inbred trait efficacy field trials (R2); assay type: in vivo; conditions: with or without CTP; quizalofop-P 0.16 lb ai/acre PRE, V4, V8
Procedure: Inbred trait efficacy field trials were conducted to assess tolerance to the AOPP herbicides and sensitivity to the cyclohexanediones (CHD) herbicides in an inbred background. R2 inbred plants were generated by selfing a homozygous transgenic R1 plant and collecting seed. R2 inbred plants containing MON-HT55 with or without a CTP or MON-HT51 with a CTP and were evaluated at two field locations. Herbicide treatment was 2× quizalofop-P at 0.16 lb ai/acre applied PRE (after planting but before emergence) followed by quizalofop-P at 0.16 lb ai/acre applied at V4 growth stage followed by quizalofop-P at 0.16 lb ai/acre applied at V8 growth stage. Plots were rated for crop injury 7-10 days after herbicide application on a scale of 0-100 with zero being no injury and 100 being complete crop death. All data were subjected to analysis of variance and means separated at LSD (0.05). […] To test for sensitivity to CHD herbicides, which is desirable for use in volunteer control, plants were treated with a 1× rate of clethodim (0.25 lb ai/acre) at V8 growth stage. […] The resulting F1 plants containing MON-HT55 (SEQ ID NO:13) with or without a CTP or MON-HT51 (SEQ ID NO: 3) without a CTP were evaluated at six field locations. […] This permitted the engineered protein to be evaluated in maize under high temperature and water stress conditions. […]

F1 hybrid maize plants [1] = test: 2,4-D tolerance at elevated growth temperatures; assay type: in vivo; conditions: 4× 2,4-D amine; day/night 38° C./30° C.; ten days after treatment
Procedure: To test for 2,4-D tolerance at elevated growth temperatures, F1 hybrid plants were produced by crossing an R1 plant containing MON-HTI, MON-HT2, MON-HT3, MON-HT4, MON-HT7, or MON-HT55 with an inbred plant containing maize event MON89034. The F1 hybrid plants were grown in a greenhouse for one week at a minimum temperature of 20° C. and a maximum temperature of 28° C. with 50 to 80% humidity. After 1 week, the plants were moved to acclimate for three days at one of two different day and night temperature regimens: (1) both day and night temperatures set at 20° C. or (2) day temperature at 38° C. and night temperature at 30° C. At the end of the acclimation period, the plants were generally at V4 growth stage and were sprayed with 4× 2,4-D amine. Ten days after treatment the plants were scored for injury using an injury scale of 0 to 100 with “0” being no injury and “100” being a dead plant. When plants were acclimated at day/night temperatures of 20° C./20° C. prior to application of 4× 2,4-D amine, F1 plants containing MON-HT1, MON-HT2, MON-HT3, MON-HT4, MON-HT7, or MON-HT55 had injury rating averages of <10%, and the control plants had injury rating averages of <20% (FIG. 4D). […]

transgenic soy plants = test: soy green house tolerance to synthetic auxins; assay type: in vivo, soybean; conditions: for Average soy % crop injury for 4 reps, 2,4-D Amine / Average soy % crop injury for 4 reps, MCPA: 2X rate 1680 g ae/ha
[2] = tested on: transgenic soybean plants; test: R0 soybean 2,4-D spray test of 2,4-D optimized variants; assay type: in vivo
Text: An additional five engineered proteins optimized for activity for 2,4-D were then selected for analysis in transgenic soybean. DNA constructs were produced for expressing MON-HT13 (SEQ ID NO:47), MON-HT14 (SEQ ID NO:48), MON-HT15 (SEQ ID NO:49), MON-HT17 (SEQ ID NO:51), and MON-HT18 (SEQ ID NO:52) with codon usage optimized for dicot expression. The operably linked expression elements (promoter, leader, intron, CTP, and 3′UTR) were identical in all of the constructs. Leaf samples were taken from R0 plantlets and single copy plants were identified using a PCR-based assay. When the single-copy R0 plants had approximately two to three trifoliate leaves, they were treated with either 1.5 lb ae/acre (2×) or 3.0 lb ae/acre (4×) of 2,4-D. Seven days after herbicide application, the plants were scored for herbicide injury based on the percent area of the plant showing injury, as indicated above.

F1 hybrid maize plants [3] = test: maize green house tolerance to synthetic auxins; assay type: in vivo; conditions: 'A' CTP, Events 1-3 in columns
[4] = 2X rate 840 g ae/ha, Events 1-3 in columns, seven days after treatment
[5] = Events 1-3 in columns, seven days after treatment
[6] = Events 1-3 in columns, seven days after treatment, listed as MON-HTI

Molecule | crop injury of inbred plants (transgenic maize plants) | injury rating averages (F1 hybrid maize plants [1]) [%] | Average soy % crop injury for 4 reps, fluroxypyr (transgenic soy plants; [4]) | Average soy % crop injury for 4 reps, triclopyr (transgenic soy plants; [4]) | Average soy % crop injury for 4 reps, 2,4-D Amine (transgenic soy plants; [5]) | Average soy % crop injury for 4 reps, MCPA (transgenic soy plants; [5]) | Average soy % crop injury for 4 reps, 2,4-D Amine (transgenic soy plants; [6]) | Average soy % crop injury for 4 reps, MCPA (transgenic soy plants; [6]) | soy crop injury, triclopyr or fluroxypyr, across all three events (transgenic soy plants; 2× rate 840 g ae/ha) | Events with <20% injury ([2]; 2,4-D rate 2X (1.5 lb ae/acre), single copy R0 soy, seven days after application) | tolerance to 2,4-D treatment ([2]; 2× application rate, soy) | Average maize % crop injury for 4 reps, fluroxypyr (F1 hybrid maize plants [3]; 4X rate 1680 g ae/ha) | Average maize % crop injury for 4 reps, triclopyr (F1 hybrid maize plants [3]; 4X rate 1680 g ae/ha) | Average maize % crop injury for 4 reps, MCPA (F1 hybrid maize plants [3]; 4X rate 3360 g ae/ha, listed as MON-HTl) [%]
MON-HT55: engineered oxygenase protein, amino acid sequence SEQ ID NO:11 (protein) MHAALSPLSQRFERIAVQPLTGVLGAEITGVDLREPLDDSTWNEILDAFHTYQVIYFPGQAITNEQHIAFSRRFGPVDPVPLLKSIEGYPEVQMIRREANESGRVIGENWHTDSTFLDAPPAAVVMYAKEIPPYGGDTLFTSMYTAWETLSPTMQATIEGLNVVHSATRVFGSLYQAQNRRFSNTSVKVMDVDAGDRETVHPLVVTHPETGRKGLYVNQVYCQRIEGMSEKESEPLLSFLFAHATKPEFTCRVRWQEGDVLVWDNLCTQHYAVPDYAGKFRYLTRTTVGGVRPAR | no injury | 50 | – | – | – | – | – | – | – | – | – | – | – | –
MON-HT1: engineered oxygenase protein, amino acid sequence SEQ ID NO:14 (protein) MHAALTPLTNKYRFIDVQPLTGVLGAEITGVDLREPLDDSTWNEILDAFHTYQVIYFPGQAITNEQHIAFSRRFGPVDPVPILKSIEGYPEVQMIRREANESSRFIGDDWHTDSTFLDAPPAAVVMRAIEVPEYGGDTGFLSMYSAWETLSPTMQATIEGLNVVHSATKVFGSLYQATNWRFSNTSVKVMDVDAGDRETVHPLVVTHPVTGRRALYCNQVYCQKIQGMTDAESKSLLQFLYEHATKFDFTCRVRWKKDQVLVWDNLCTMHRAVPDYAGKFRYLTRTTVAGDKPSR | – | – | 96.3% and 93.8% and 97.5% | 81.3% and 90.0% | 4.5% and 6.5% and 5.3% | 90.0% and 72.5% | less than 7% | 72% and 90% | 81-97% | 12 | excellent tolerance | 20.0% and 21.3% | 26.3% and 37.5% and 35.0% | 20
MON-HT51: engineered oxygenase protein, amino acid sequence SEQ ID NO:1 (protein) MHAALSPLSQRFERIAVQPLTGVLGAEITGVDLREPLSDSTWNEILDAFHTYQVIYFPGQAITNEQHIAFSRRFGPVDPVPLLKSIEGYPEVQMIRREANESGRVIGDDWHTDSSFLDAPPAAVVMRAIDVPEHGGDTGFLSMYTAYDALSDGLKKLISGLNVVHSATRVFGSLYQAQNRRFSNTSVKVMDVADGDRETVHPLVVTHPGSGRKGLYVNQVYCQRIEGMSEKESEPLLSFLFAHATKPEFTCRVRWKKDQVLVWDNLCTMHYAINDYHGQTRILHRTTVGGVRPAR | no injury | – | – | – | – | – | – | – | – | – | – | – | – | –

— patent US12723255B2, “Herbicide tolerance genes and methods of use thereof” (priority 2014, dated 2026)
